Measured values reported in patent publication US20220389111A1 (SHANGHAI EPIMAB BIOTHERAPEUTICS, published 2022).
Changes are numbered by the printed parent chain. In names and notes the source's numbering stands. Like-named read-outs stand apart in the source and are kept apart here.

T1: human CD39 on the cell membrane (CHO-K1-human CD39 stable cell line); SK-MEL-28 melanoma cells; human CD4+ T … (human, UniProt P49961 1-510)
T1 construct: Overexpressed on CHO-K1 cells or endogenous on SK-MEL-28 / T cells; the assay field says which cells; also called huCD39; CHO-K1-huCD39
T1 sequence: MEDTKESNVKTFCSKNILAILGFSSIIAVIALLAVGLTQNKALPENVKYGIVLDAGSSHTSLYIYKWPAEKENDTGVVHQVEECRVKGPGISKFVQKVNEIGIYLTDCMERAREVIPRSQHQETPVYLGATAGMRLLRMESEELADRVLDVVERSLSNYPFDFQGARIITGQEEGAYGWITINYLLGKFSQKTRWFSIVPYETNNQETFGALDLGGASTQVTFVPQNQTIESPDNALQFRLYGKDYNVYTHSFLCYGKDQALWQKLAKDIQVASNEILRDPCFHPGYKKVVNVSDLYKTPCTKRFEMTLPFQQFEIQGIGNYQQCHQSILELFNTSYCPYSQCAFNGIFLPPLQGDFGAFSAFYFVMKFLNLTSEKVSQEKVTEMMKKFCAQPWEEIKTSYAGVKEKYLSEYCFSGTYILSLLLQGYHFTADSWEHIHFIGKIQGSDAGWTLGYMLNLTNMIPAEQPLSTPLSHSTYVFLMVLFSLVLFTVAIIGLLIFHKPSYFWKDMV

T2: cynomolgus monkey CD39 on CHO-K1 cells (cynomolgus monkey, UniProt A0A7N9DGH8 1-510)
T2 construct: whole, on cells; also called CHO-K1-cyCD39; CHO-K1-cyno CD39
T2 sequence: T1 sequence with V47I, F94Y, V221I, I230T, I329V, K368N, A391S, F489V, T490I

T3: huCD39-ECD-His (human, UniProt P49961 38-478)
T3 construct: also called C-terminally hexahistidine-tagged human CD39 extracellular domain
T3 sequence: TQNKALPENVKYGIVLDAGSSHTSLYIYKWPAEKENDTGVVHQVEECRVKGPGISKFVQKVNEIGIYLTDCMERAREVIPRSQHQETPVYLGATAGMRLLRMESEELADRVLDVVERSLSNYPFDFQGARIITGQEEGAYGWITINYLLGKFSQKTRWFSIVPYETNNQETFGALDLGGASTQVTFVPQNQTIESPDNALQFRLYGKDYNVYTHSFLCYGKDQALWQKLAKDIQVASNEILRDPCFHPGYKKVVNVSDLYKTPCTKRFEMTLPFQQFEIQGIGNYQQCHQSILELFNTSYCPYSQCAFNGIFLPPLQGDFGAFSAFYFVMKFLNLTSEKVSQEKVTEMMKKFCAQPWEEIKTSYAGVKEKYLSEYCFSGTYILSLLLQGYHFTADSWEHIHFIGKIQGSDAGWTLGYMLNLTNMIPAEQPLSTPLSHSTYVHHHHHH

T4: human CD39 protein (recombinant) (human, UniProt P49961 38-478, limits assumed)
T4 sequence: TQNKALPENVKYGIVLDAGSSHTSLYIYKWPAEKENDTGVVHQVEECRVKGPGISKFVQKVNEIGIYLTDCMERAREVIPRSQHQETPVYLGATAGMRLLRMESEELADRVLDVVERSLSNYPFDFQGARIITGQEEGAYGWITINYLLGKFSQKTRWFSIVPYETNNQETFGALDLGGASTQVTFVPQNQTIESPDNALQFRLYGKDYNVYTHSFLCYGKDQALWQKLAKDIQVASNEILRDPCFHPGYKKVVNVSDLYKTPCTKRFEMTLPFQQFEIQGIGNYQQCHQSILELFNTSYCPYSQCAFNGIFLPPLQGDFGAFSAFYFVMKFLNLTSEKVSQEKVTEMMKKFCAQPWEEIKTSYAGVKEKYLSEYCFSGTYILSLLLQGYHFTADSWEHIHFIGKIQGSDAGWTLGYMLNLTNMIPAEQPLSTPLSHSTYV

B1: mAb636 (antibody, V domains shown)
VH: QVQLQQPGTELVMPGASVTLSCKASGYSFISYWMHWVKQRPGQGLEWIGEIDPSDDYTNYNQNFKGKATLTVDRSSSTAYMQLNSLTSEDSAVYYCAREENGIYYYNKGYLDVWGTGTTVTVSS
VL: DIVMTQTAFSNPVTLGTSASISCRSSKSLLHSNGITYLYWYLQKPGQSPQVLIYQMSNLASGVPDRFSCSGSGTDFTLRITRVEAEDVGFYYCAQNLELPYTFGGGTKLEMK
notes: mouse anti-human CD39 hybridoma mAb, IgG2a, κ
B2: HuEM0004-38-22 (antibody, human IgG1, kappa, L234A L235A, V domains shown)
VH: EVQLVQSGAEVKKPGASVKVSCKASGYTFTSFWMHWVRQAPGQGLEWMGNINPRNAATKYNEKFRSRVTLTADKSISTAYMELSRLRSDDTAVYYCAREDYDEIYYAMDSWGQGTTVTVSS
VL: ENVLTQSPATLSLSPGERATLSCSASSSVIYMYWFQQKPGQSPRVLIYDTSNLASGVPARFSGSGSGTDYTLTISSLEPEDFAVYYCQQWSTYPLTFGQGTKLEIKR
notes: humanized mAb638 with G55A
B3: HuEM0004-38-23 (antibody, human IgG1, kappa, L234A L235A, V domains shown)
VH: B2 VH with M48I
VL: B2 VL
notes: humanized mAb638 with G55A
B4: HuEM0004-38-21 (antibody, human IgG1, kappa, L234A L235A, V domains shown)
VH: B2 VH with L70M
VL: B2 VL
notes: humanized mAb638 with G55A
B5: EM0004-38c1 (antibody, human IgG1, kappa, L234A L235A, name in Kabat numbering, V domains shown)
VH: QVQLQQPGTELVKPGASVKLSCKASGYTFTSFWMHWVKQRPGQGLEWIGNINPRQGATKYNEKFRSKVTLTADKTSSTAYMHLSSLTSEDSAVYYCAREDYDEIYYAMDSWGQGTSVTVSS
VL: QNVLTQSPAIMSASPGEKVTMTCSASSSVIYMYWFQQKPGSSPRVLIYDTSNLASGVPARFSGSGSGTSYSLTISRMEAEDAATYYCQQWSTYPLTFGAGTKLELKR
notes: chimeric mAb638 variant; also called EM004-38c1
B6: EM0004-38c2 (antibody, human IgG1, kappa, L234A L235A, name in Kabat numbering, V domains shown)
VH: B5 VH with Q55N, G56A
VL: B5 VL
notes: chimeric mAb638 variant

How the values were obtained:
[1] = target: T1, human CD39 on the cell membrane …; test: FACS on CHO-K1-human CD39 cells
Procedure: (§1) The ability of the purified antibodies to bind to cell membrane human CD39, cynomolgus monkey CD39, or mouse CD39 was determined by FACS analysis. CHO-K1 cells stably transfected to overexpress human CD39, cynomolgus monkey CD39, or mouse CD39 (CHO-K1-huCD39 cells, CHO-K1-cyCD39 cells, and CHOK1-muCD39 cells) were generated for use in this assay. Briefly, SK-MEL-28 melanoma cells (ATCC) or CD39 overexpressing stable CHO cell lines were resuspended in PBS containing 2% FBS (FACS buffer) and seeded at 1-5×10⁵ cells/well into U-bottomed plates. Anti-CD39 mAbs or isotype control antibodies diluted in FACS buffer were added to the wells and incubated for 1 hour at 4° C. After washing with FACS buffer, 1:1000 diluted Fluorescence-labeled secondary antibody (Life Technologies/ThermoFisher Scientific) were added and incubated for 30 min. at 4° C. Unbound secondary mAb was removed by washing with FACS buffer three times, and the samples were then read on a FACS instrument. The data were processed by GraphPad software.

[2] = target: T2, cynomolgus monkey CD39 on CHO-K1 cells; test: FACS on CHO-K1-cyno CD39 cells
Procedure: as §1

[3] = target: T1, human CD39 on the cell membrane …; test: cell-based or functional assay
[4] = target: T1, human CD39 on the cell membrane …; test: FACS on CHO-K1-human CD39 cells; remark: listed apart in the source
Procedure: as §1
(§2) Accordingly, a G55A mutation was introduced in the CDR-H2 in HuEM0004-38-17, -18, and -19 to generate HuEM0004-38-21 (SEQ ID NO:32 (VH) and SEQ ID NO:17 (VK)), HuEM0004-38-22 (SEQ ID NO:33 (VH) and SEQ ID NO:17 (VK)), and HuEM0004-38-23 (SEQ ID NO:34 (VH) and SEQ ID NO:17 (VK)). The three humanized anti-CD39 antibodies were characterized by FACS binding assay and for cell-based inhibition of ATPase activity.

huCD39-ECD-His = target: T3, huCD39-ECD-His; test: BLI (Octet RED96), antibody captured on AHC biosensor, antigen in solution
Procedure: Anti-CD39 antibodies were characterized for affinities and binding kinetics using the Octet®RED96 biolayer interferometry system (Pall FortéBio LLC). Purified anti-CD39 antibodies were captured by Anti-Mouse IgG Fc Capture (AMC) biosensors or Anti-Human IgG Fc Capture (AHC) biosensors at a concentration of 100 nM for 30 seconds. Biosensors were then dipped into running buffer (1X pH7.2 PBS, 0.05% Tween 20, 0.1% BSA) for 60 seconds to check baseline. Binding was measured by dipping sensors into purified recombinant human CD39 protein, 3-fold serial diluted from 200 nM, for 120 seconds. Dissociation was followed by dipping sensors into running buffer for 600 seconds. The association and dissociation curves were fitted to a 1:1 Langmuir binding model using Fortebio Data Analysis software (Pall FortéBio LLC).

[5] = target: T2, cynomolgus monkey CD39 on CHO-K1 cells; test: FACS on CHO-K1-cyno CD39 cells; remark: listed apart in the source
Procedure: as §1, §2

[6] = target: T1, human CD39 on the cell membrane …; test: FACS on SK-MEL-28 cells (endogenous human CD39)
Procedure: as §1, §2

[7] = target: T1, human CD39 on the cell membrane …; test: cell-based or functional assay; remark: listed apart in the source
[8] = target: T4, human CD39 protein (recombinant); test: cell-based or functional assay
[9] = target: T4, human CD39 protein (recombinant); test: ELISA on coated human CD39 protein
Procedure: To determine if anti-CD39 mAbs bind to human CD39, ELISA plates were incubated overnight at 4° C. with human CD39 protein or mouse CD39 protein diluted in PBS, pH7.4 buffer at 1 μg/ml. Plates were washed four times in washing buffer (PBS containing 0.05% Tween 20), and blocked for 1 hour at 37° C. with 200 μl per well blocking buffer (1% BSA in PBS containing 0.05% Tween 20). After blocking buffer was removed, hybridoma supernatant or diluted purified Abs were added to the wells at 100 μl per well and incubated at 37° C. for 1 hour. The wells were washed four times with washing buffer, and anti-mouse HRP (for mouse anti-human CD39 Ab characterization) or anti-rat HRP (for rat anti-mouse CD39 Ab characterization) (Sigma) were 1:5000 diluted and added to the wells at 100 μl per well. The plates were incubated for 1 hour at 37° C. and washed four times in washing buffer. 100 μl of tetramethylbenzidine (TMB) chromogenic solution were added per well. Following color development, the reaction was stopped with 1N HCl, and absorbance at 450 nm was measured. The data were proceeded by GraphPad software.
Humanized antibodies HuEM04-38-6 to HuEM0004-38-20 and chimeric antibodies EM04-38c, EM004-38c1, and EM0004-38c2 were tested for CD39 specific binding by ELISA as described in Example 1.2 and for inhibition of protein-based ATPase activity as described in Example 1.3.

Row | Binder | EC50 [1] [nM] | EC50 [2] [nM] | IC50 (read off the curve), cell-surface hCD39 ATPase activity [3] [nM] | EC50 [4] [nM] | Kd (huCD39-ECD-His) [nM] | koff (huCD39-ECD-His) [s⁻¹] | kon (huCD39-ECD-His) [M⁻¹ s⁻¹] | EC50 [5] [nM] | EC50 [6] [nM] | cell-based CD39 ATPase inhibition assay (SK-MEL-28 cells), concentration of essentially complete inhibition [7] [nM] | ATPase inhibition IC50 [8] [nM] | ATPase inhibition, inhibition % [8] [%] | EC50 [9] [µg/mL]
1 | B1 | 12.7 | 10.6 | – | – | – | – | – | – | – | – | – | – | –
2 | B2 | – | – | ~0.2 | 7.21 | 2.53 | 0.000348 | 138000 | 7.42 | 4.71 | ~1 | – | – | –
3 | B3 | – | – | ~0.2 | 8.36 | 2.55 | 0.000365 | 143000 | 7.18 | 5.47 | ~1 | – | – | –
4 | B4 | – | – | ~0.2 | 6.34 | 2.28 | 0.000316 | 139000 | 6.14 | 4.75 | ~1 | – | – | –
5 | B5 | – | – | – | – | – | – | – | – | – | – | 15.6 | 102 | 0.023
6 | B6 | – | – | – | – | – | – | – | – | – | – | 14.3 | 103 | 0.016
